The record followed here is patent publication US11674967B2, “Method of identifying potential inhibitors of APO TNFα trimers” (UCB BIOPHARMA SRL, priority 2015, dated 2023).

Experiment [1] addresses T1, TNFα (Homo sapiens, UniProt P01375). Briefly: SPR on Biacore 4000 against immobilised soluble TNFα. It counts as binding. Conditions: up to 100 μM. Here is the method:
In another experiment, BIO8898 was tested against the immobilised soluble form of CD40L and the soluble form of TNFα by SPR on a Biacore 4000 machine.
In general terms: Surface plasmon resonance follows binding to a sensor surface in real time, without labels.

The next experiment concerns the target T2, Mouse TNFα (Mus musculus, UniProt P06804).
T2 construct: made in house
T2 sequence (P06804 80-235 limits assumed): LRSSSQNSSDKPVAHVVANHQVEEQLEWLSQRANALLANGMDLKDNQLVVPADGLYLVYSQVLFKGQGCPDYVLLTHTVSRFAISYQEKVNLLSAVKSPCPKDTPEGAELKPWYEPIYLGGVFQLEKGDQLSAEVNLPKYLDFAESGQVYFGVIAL
Briefly: BIAcore antibody binding with mouse TNFα +/- compound. Here is the method:
(§1) Surface plasmon resonance was performed at 25° C. using a BIAcore T200 (GE Healthcare). Anti-Mouse Fc (Jackson 115-006-071) was immobilised on a […] Sensor Chip (GE Healthcare) via amine coupling chemistry to a capture level of 6000 response units. HBS-EP buffer (10 mM HEPES pH 7.4, 0.15 M NaCl, 3 mM EDTA, 0.05% (v/v) surfactant P20—GE Healthcare)+1% DMSO was used as the running buffer.
(§2) The surface was regenerated at a flow-rate of 10 μl/min by a 60 s injection of 40 mM HCl×2 and a 30 s 5 mM NaOH. Double referenced background subtracted binding curves were analysed using the T200 Evaluation software (version 1.0) following standard procedures. Kinetic parameters were determined from the fitting algorithm.

Experiment [2] deals with human TNFα complexed with compound (15) (Homo sapiens, UniProt P01375). Put plainly: Size exclusion chromatography of Fab with human TNFα complexed with compound (15). It is filed as binding. Conditions: mouse Fab fragments. For orientation: In gel filtration, larger molecules generally elute earlier.
In experiment [3] the target is T1, TNFα. Briefly: BIAcore antibody binding with human TNFα +/- compound. Details: made in house. The method, then:
as §1, §2

T1 sequence (P01375 77-233 limits assumed): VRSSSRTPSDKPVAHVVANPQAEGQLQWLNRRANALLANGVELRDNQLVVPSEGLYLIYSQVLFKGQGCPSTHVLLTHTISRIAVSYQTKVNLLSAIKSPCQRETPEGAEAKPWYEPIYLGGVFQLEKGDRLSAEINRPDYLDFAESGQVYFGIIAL
Sequence of human TNFα complexed with compound (15) (P01375 77-233 limits assumed, one chain of several): as the sequence (P01375 77-233 limits assumed) above

On to `O=C(NCc1cccc(-c2ccccc2)c1)c1cc(-c2cc(C(=O)NC(C(=O)O)C3CCCCC3)nc(C(=O)N3CCCC3CN3CCCC3)c2)cc(C(=O)N2CCCC2CN2CCCC2)n1` (stereo not shown) [BIO8898], for which the “binding to TNFα” value at TNFα [1] is reported as “no binding was detected”.

B1: CA185_01979: conformation-selective antibody, light chain SEQ ID NO: 26, heavy chain SEQ ID NO: 27 (antibody)
heavy: EVHLVESGPGLVKPSQSLSLTCSVTGYSITNSYWDWIRKFPGNKMEWMGYINYSGSTGYNPSLKSRISISRDTSNNQFFLQLNSITTEDTATYYCARGTYGYNAYHFDYWGRGVMVTVSSAKTTPPSVYPLAPGSAAQTNSMVTLGCLVKGYFPEPVTVTWNSGSLSSGVHTFPAVLQSDLYTLSSSVTVPSSTWPSETVTCNVAHPASSTKVDKKIVPRDCGCKPCICTVPEVSSVFIFPPKPKDVLTITLTPKVTCVVVDISKDDPEVQFSWFVDDVEVHTAQTQPREEQFNSTFRSVSELPIMHQDWLNGKEFKCRVNSAAFPAPIEKTISKTKGRPKAPQVYTIPPPKEQMAKDKVSLTCMITDFFPEDITVEWQWNGQPAENYKNTQPIMDTDGSYFVYSKLNVQKSNWEAGNTFTCSVLHEGLHNHHTEKSLSHSPGK
light: DIQMTQSPASLSASLEEIVTITCQASQDIGNWLSWYQQKPGKSPHLLIYGTTSLADGVPSRFSGSRSGTQYSLKISGLQVADIGIYVCLQAYSTPFTFGSGTKLEIKRTDAAPTVSIFPPSSEQLTSGGASVVCFLNNFYPKDINVKWKIDGSERQNGVLNSWTDQDSKDSTYSMSSTLTLTKDEYERHNSYTCEATHKTSTSPIVKSFNRNEC
modifications: 1979 HC mIgG1 full; 1979 LC Kappa full
Consider B1, for which the Kd (in general, the constant that tells how readily two partners part at equilibrium) with Mouse TNFα (Mouse TNFα + compound (15)) amounted to 0.38 nM; in the experiment with Mouse TNFα (Mouse TNFα apo), 27 nM. Also, the ka with Mouse TNFα (Mouse TNFα + compound (15)) stood at 160000 M⁻¹ s⁻¹; in the experiment with Mouse TNFα (Mouse TNFα + compound (39)), 190000 M⁻¹ s⁻¹; in the experiment with Mouse TNFα (Mouse TNFα apo), 72000 M⁻¹ s⁻¹; with TNFα [3] (Human TNFα + compound (15)) it was 470000 M⁻¹ s⁻¹; with TNFα [3] (Human TNFα + compound (39)), 570000 M⁻¹ s⁻¹; with TNFα [3] (Human TNFα apo), 110000 M⁻¹ s⁻¹. Moreover, the kd with Mouse TNFα (Mouse TNFα + compound (15)) worked out at 6.3e-05 s⁻¹; with Mouse TNFα (Mouse TNFα + compound (39)), 3.5e-05 s⁻¹; in the experiment with Mouse TNFα (Mouse TNFα apo), 0.002 s⁻¹; with TNFα [3] (Human TNFα + compound (15)), 1.6e-05 s⁻¹; in the experiment with TNFα [3] (Human TNFα + compound (39)) it was 3.3e-05 s⁻¹; with TNFα [3] (Human TNFα apo), 0.00071 s⁻¹. Also, the “stoichiometry of Fab binding to trimer-compound complex” value in experiment [2] was 1 Fab:1 TNFα trimer.
